Laboratory results published in paper PMC4499140 (Nucleic Acids Research, 2015).

B1: Rv1222 of Mycobacterium tuberculosis, TMR labelled (natural protein)
chain: MADPGSVGHVFRRAFSWLPAQFASQSDAPVGAPRQFRSTEHLSIEAIAAFVDGELRMNAHLRAAHHLSLCAQCAAEVDDQSRARAALRDSHPIRIPSTLLGLLSEIPRCPPEGPSKGSSGGSSQGPPDGAAAGFGDRFADGDGGNRGRQSRVRR

Key:
[1] = molecular target: T1, Rv1222 (Mycobacterium tuberculosis H37Rv) (UniProt L0T905); assay: fluorescence anisotropy
T1 sequence: B1 chain

[2] = molecular target: T2, Mycobacterium tuberculosis sigma factor A (Mycobacterium tuberculosis, UniProt P9WGI1 1-528); assay: fluorescence polarisation
T2 sequence: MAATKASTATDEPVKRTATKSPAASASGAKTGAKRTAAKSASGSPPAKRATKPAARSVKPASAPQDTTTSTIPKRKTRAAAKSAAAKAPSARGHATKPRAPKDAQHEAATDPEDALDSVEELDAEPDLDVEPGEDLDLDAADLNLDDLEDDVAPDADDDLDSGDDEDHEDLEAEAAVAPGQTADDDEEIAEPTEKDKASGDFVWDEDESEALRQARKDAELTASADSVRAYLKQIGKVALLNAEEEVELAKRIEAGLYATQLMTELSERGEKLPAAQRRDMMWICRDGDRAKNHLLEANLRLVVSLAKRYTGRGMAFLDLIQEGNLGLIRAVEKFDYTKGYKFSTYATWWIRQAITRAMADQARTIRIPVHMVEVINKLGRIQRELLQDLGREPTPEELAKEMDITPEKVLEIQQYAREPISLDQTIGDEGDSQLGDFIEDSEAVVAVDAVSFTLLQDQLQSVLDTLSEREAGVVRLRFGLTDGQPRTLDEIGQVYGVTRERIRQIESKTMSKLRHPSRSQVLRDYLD

[3] = molecular target: T3, Mycobacterium tuberculosis sigma factor E (Mycobacterium tuberculosis, UniProt P9WGG7 1-257); assay: fluorescence polarisation
T3 sequence: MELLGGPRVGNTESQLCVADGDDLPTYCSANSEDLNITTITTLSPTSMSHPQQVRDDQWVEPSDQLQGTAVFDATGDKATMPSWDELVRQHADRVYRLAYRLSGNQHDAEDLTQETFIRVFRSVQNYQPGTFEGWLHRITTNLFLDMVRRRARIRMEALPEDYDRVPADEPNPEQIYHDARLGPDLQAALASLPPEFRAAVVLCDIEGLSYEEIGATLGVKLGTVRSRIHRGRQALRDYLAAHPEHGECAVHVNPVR

[4] = molecular target: E. coli DNA polymerase (Klenow fragment) (E. coli, UniProt P00582 324-928); assay: fluorescence polarisation
Chain of E. coli DNA polymerase (Klenow fragment) (P00582 324-928): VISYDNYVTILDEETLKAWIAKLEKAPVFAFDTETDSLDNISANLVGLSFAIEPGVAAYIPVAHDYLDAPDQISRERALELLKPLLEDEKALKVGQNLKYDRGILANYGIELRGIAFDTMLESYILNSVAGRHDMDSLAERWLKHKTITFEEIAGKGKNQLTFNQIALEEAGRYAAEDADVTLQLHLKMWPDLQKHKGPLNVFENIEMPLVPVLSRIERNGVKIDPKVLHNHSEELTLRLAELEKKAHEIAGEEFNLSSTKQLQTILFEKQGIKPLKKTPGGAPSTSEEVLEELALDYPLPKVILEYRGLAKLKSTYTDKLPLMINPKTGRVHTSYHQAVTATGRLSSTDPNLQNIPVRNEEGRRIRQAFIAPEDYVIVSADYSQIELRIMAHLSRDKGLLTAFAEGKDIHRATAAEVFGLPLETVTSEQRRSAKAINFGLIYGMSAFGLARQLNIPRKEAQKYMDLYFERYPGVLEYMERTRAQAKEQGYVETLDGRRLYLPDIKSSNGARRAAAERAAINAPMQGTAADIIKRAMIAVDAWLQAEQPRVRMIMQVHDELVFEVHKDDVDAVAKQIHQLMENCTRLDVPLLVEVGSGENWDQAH

| Molecule | Kd [1] [nM] | Kd [2] [nM] | Kd [3] [nM] | Kd [4] [nM] |
| --- | --- | --- | --- | --- |
| GTGAGTATCTCGCAGTCCGACGCGTCGTTGGCCGCCGTCCCCGCCGTGGATCAGTTCGATCCGTCGTCAGGTGCATCAGGTGGCTACGACACCCCGCTGGGCATCACCAATCCGCCCATCGACGAGTTGCTGGACCGCGTCTCGAGCAAATACGCCCTCGTGATCTATGCGGCAAAGCGTGCCCGGCAGATCAACGACTACTACAACCAGCTTGGCGAGGGCATCCTCGAATATGTCGGTCCGCTGGTTGAGCCGGGGTTGCAAGAGAAGCCGTTGTCCATCGCGTTGCGCGAGATCCACGCCGATCTGCTCGAGCACACCGAGGGCGAGTAG (double strand) [promoterless DNA fragment] | 52 |  |  |  |
| B1 |  | ~690 | ~270 | 245 ± 78 |
